Reference: patent US20260130994A1

Target: CD3ε on wildtype primary human T cells (human) (UniProt P07766)
Experiment: cell-based or functional assay

CAR4 (CD3ε.CD8α.4-1BB.CD3ζ), myc-tagged second-generation CAR with the OKT3 scFv, expressed on NK-92 cells, sequence (chain): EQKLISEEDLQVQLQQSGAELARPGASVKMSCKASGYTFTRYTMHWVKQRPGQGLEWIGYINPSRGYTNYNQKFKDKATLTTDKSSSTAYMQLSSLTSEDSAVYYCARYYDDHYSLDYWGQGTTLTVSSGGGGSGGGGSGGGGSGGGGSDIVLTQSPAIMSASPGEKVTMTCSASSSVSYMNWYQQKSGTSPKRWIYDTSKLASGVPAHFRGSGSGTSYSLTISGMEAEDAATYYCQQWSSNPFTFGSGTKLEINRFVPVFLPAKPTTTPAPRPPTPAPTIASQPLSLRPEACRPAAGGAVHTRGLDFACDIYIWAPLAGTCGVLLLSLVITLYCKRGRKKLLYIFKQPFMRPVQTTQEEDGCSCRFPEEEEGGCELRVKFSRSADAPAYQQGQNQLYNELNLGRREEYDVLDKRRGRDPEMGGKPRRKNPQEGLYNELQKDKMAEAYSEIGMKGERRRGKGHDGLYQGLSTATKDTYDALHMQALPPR

average residual TCR+ T cells after co-culture in G-Rex, regimen 1:2A: 0.026% | average residual TCR+ T cells after co-culture in G-Rex, regimen 1:2B: 0.007% | removal of residual wildtype T cells, 2 co-culture cycles: > 99.9% | removal of residual wildtype T cells, single administration: 98.6%
Substance: CAR4 (CD3ε.CD8α.4-1BB.CD3ζ), myc-tagged second-generation CAR with the OKT3 scFv, expressed on NK-92 cells
